In US20100092994A1 one finds fold of 50% inhibition against ESS-HP (SEQ ID NO: 2) and IC50 data, which are given here for one molecule.

Assay [1] addresses monoclonal antibody derived from clone 11A5 (Anti HP-FGA MAb Clone: 11A5; hybridoma FERM AP-21698). Briefly: competitive ELISA; reference is the unmodified peptide ESS-HP (SEQ ID NO: 2).
Assay [2] has as its target monoclonal antibody derived from clone 11G7. The assay is described as above.
Assay [3] has as its target monoclonal antibody derived from clone 11A5 (Anti HP-FGA MAb Clone: 11A5; hybridoma FERM AP-21698). Briefly: competitive ELISA: free peptide prereacted with antibody supernatant, then added to the solid-phased oxidatively modified peptide.
For assay [4], the target named is monoclonal antibody derived from clone 11G7. Described as above.

Square brackets hold non-standard residues; d marks the D form. Ends that are not written are not given here. Hyp = O=C(O)[C@@H]1C[C@@H](O)CN1

B1: synthetic peptide ESS (SEQ ID NO: 4), ESSSHHP(OH)GIAEFPSR, oxidatively modified FGA partial peptide (peptide)
peptide: ESSSHH[Hyp]GIAEFPSR
Turning to B1, the fold of 50% inhibition against ESS-HP (SEQ ID NO: 2) in assay [1] and in assay [2] was over 25 times each time. The IC50 in assay [3] and in assay [4] was 0.4 µg/mL throughout.
